Key:
LSD1 = LSD1 (Homo sapiens, UniProt O60341); test: LSD1-mediated nucleosome demethylation assay; type: biochemical; details: 2 μg LSD1 with 5 μg cofactor protein
Procedure: FIG. 7A depicts the determination of the threshold dosage of purified LSD2 required for nucleosomal H3K4 demethylation. 2 μg of nucleosomes purified from HeLa were incubated with various amount of His-LSD2 proteins for 2 hours at 30° C. The demethylation reactions were analyzed by immunoblotting using indicated antibodies. […] 2 μg LSD1 in combination with 5 μg purified NPAC or CoREST protein was used for histone demethylase assays. […] Transfected cells are marked by arrows; cells shown significant reduction of H3K4me1 are marked by dotted circles. […] In contrast, coexpression of LSD2 and NPAC induces obvious global decrease of H3K4me1. […] FIG. 7D depicts immunofluorescence analyses of H3K9me2 demethylation in cells coexpressing LSD2 and full-length NPAC.

LSD2 = biological target: T1, LSD2 (Homo sapiens, UniProt Q8NB78); test: H3K4me2 peptide demethylation assay (MALDI-TOF); type: biochemical; details: shorter H3K4me2 peptide residues 1-15
T1 construct: 0.15 μM or 1.2 μM purified LSD2 (residues 51-822); His6 (cleaved yes); made in house; host or cells: Sf9 insect cells (baculovirus)
T1 sequence (Q8NB78 51-822): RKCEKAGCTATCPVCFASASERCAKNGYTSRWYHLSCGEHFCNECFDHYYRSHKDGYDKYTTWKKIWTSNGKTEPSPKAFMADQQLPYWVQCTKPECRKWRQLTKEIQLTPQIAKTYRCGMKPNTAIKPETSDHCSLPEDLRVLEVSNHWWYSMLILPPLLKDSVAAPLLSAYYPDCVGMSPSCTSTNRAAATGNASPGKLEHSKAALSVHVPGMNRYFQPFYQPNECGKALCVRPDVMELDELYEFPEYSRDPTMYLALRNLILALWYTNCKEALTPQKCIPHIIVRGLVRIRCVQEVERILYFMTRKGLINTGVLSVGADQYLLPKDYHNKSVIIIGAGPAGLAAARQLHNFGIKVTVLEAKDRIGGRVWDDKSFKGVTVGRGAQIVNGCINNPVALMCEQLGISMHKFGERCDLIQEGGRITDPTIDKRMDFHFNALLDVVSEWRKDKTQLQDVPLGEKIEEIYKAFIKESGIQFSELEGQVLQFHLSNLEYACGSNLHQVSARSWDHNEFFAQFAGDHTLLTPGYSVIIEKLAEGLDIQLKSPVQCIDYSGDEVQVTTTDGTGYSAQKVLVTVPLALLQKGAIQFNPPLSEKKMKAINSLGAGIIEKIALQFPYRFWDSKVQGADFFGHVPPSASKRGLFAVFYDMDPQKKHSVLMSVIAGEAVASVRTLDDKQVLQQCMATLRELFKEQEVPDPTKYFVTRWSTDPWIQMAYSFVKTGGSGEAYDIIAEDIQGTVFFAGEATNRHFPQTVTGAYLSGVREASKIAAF
Procedure: FIGS. 12A-12F depict analysis of LSD2 demethylation activity and mutational analysis. […] Demethylation products were analyzed by MALDI-TOF mass spectrometry. 0.15 μM LSD2 can efficiently demethylate the longer H3K4me2 peptide (1-21), but has no detectable activity on the shorter histone peptide (1-15), demethylation of which requires high concentration (1.2 μM) of LSD2. […] It indicates the importance of histone residue 16-21 to LSD2 enzymatic activity and NPAC cofactor activity, supporting our model that NPAC assists enzyme-substrate interactions by creating a new binding site for H3 L20 in the LSD2-NPAC complex. FIG. 12C depicts LSD2 demethylation and NPAC cofactor activity on longer H3K4me2 peptide (1-44). 2 μg H3K4me2 peptide (1-44) were incubated with 0.8 μg GST-LSD2 (1-822) and 2 μg wild-type or F217A full-length GST-NPAC proteins in 100 μl demethylation buffer (50 mM Tris-HCl pH 8.1, 1 mM NAD^+, 0.1 Unit formaldehyde dehydrogenase) at 30° C. for 2 hours. LSD2 alone can efficiently demethylate di-methyl H3K4 of the long peptides, converting large majority of the substrate to H3K4me1. Wild-type NPAC protein can efficiently stimulate LSD2 demethylation, producing unmethylated H3K4. F217A mutation impairs NPAC cofactor activity as expected, showing little stimulatory effect if any. To compare demethylation efficiency, 1.2 μg bio-H3K4me2 peptide (H3 residue 1-21, equal molar ratio to 2 ug H3K4me2 1-44 peptide in above assays) was demethylated by LSD2 under identical conditions (bottom panel). […] The cofactor activity of wild-type NPAC was readily detected under the same conditions. […] Importantly, the demethylation of nucleosomal H3K4me2 was much more efficient in the presence of wild-type NPAC under same conditions (comparing lane 3 verse 4, and 8 verse 9). It is noted that no obvious cofactor effect of F217A peptide or linker regions was detected in nucleosome and peptide demethylation assays (FIG. 6E and data not shown). FIG. 12F depicts Coomassie staining of NPAC proteins used in histone demethylase assays. FIG. 12F discloses “His6” as SEQ ID NO: 75.
Histone peptides are purchased from Millipore, or custom synthesized. The purity of all peptides are >95% as determined by HPLC and mass spectrometry. In vitro histone demethylase activity assays were performed as described (Shi et al., 2004). Briefly, purified LSD2 and NPAC derived peptides or proteins were incubated with 50 μM H3K4me2 peptides (residues 1-21) in 50 mM Tris-HCl, pH 8.5, 50 mM KCl, 5 mM MgCl2, 5% glycerol at 37° C. for 30 min. The products were desalted through a C18 Ziptip (Millipore) and analyzed on a MALDI-TOF micro MX mass spectrometer (ABI 4700, Applied Biosystems). The laser intensity was kept constant for all of the samples. All MS data were processed using Data Explorer 4.5 (Applied Biosystems). […]

[1] = tested on: nucleosomes purified from HeLa; test: Nucleosome pulldown by GST-NPAC proteins; type: binding
Procedure: Nucleosomes were purified from HeLa as previously described (Umlauf et al., 2004). To examine nucleosome binding selectivity of NPAC, 5 μg GST fusion protein bound to glutathione agarose were incubated with 20 μg nucleosomes overnight at 4° C. in nucleosome binding buffer (50 mM NaPO4 pH 7.4, 200 mM NaCl, 0.5% NP-40, 5% glycerol, 10 μM ZnSO4, 1 mM MgCl2, 1 mM DTT, 0.1 mM PMSF). After washing 4 times with the same buffer at 4° C., the beads were boiled in 1×SDS sample loading buffer and elute was resolved by 15% SDS-PAGE for immunoblot analysis or coomassie staining.
For free-DNA competition assays, human genomic DNA was purified from HeLa cells and fragmented to an average size around 300 bp by sonication. Equal amounts of GST-NPAC.d5 bound to glutathione beads were pre-incubated with 0, 5, 10, 25 μg genomic DNA fragments in nucleosome binding buffer for 30 minutes at room temperature, and equal amounts of nucleosomes were added and incubated overnight at 4° C. After extensive washing, GST-NPAC.d5 and bound nucleosomes were eluted by boiling in 1×SDS sample loading buffer, resolved by SDS-PAGE and stained with coomassie blue.

B1: NPAC: full-length human NPAC/GLYR1 (protein ID: Q49A26), recombinant, LSD2 cofactor (protein)
chain: MAAVSLRLGDLVWGKLGRYPPWPGKIVNPPKDLKKPRGKKCFFVKFFGTEDHAWIKVEQLKPYHAHKEEMIKINKGKRFQQAVDAVEEFLRRAKGKDQTSSHNSSDDKNRRNSSEERSRPNSGDEKRKLSLSEGKVKKNMGEGKKRVSSGSSERGSKSPLKRAQEQSPRKRGRPPKDEKDLTIPESSTVKGMMAGPMAAFKWQPTASEPVKDADPHFHHFLLSQTEKPAVCYQAITKKLKICEEETGSTSIQAADSTAVNGSITPTDKKIGFLGLGLMGSGIVSNLLKMGHTVTVWNRTAEKCDLFIQEGARLGRTPAEVVSTCDITFACVSDPKAAKDLVLGPSGVLQGIRPGKCYVDMSTVDADTVTELAQVIVSRGGRFLEAPVSGNQQLSNDGMLVILAAGDRGLYEDCSSCFQAMGKTSFFLGEVGNAAKMMLIVNMVQGSFMATIAEGLTLAHVTGQSQQTLLDILNQGQLASIFLDQKCQNILQGNFKPDFYLKYIQKDLRLAIALGDAVNHPTPMAAAANEVYKRAKALDQSDNDMSAVYRAYIH
Stimulation of LSD1 nucleosome demethylation (LSD1): no stimulatory effect on nucleosome demethylation by LSD1
Cofactor activity: stimulation of LSD2 demethylation of H3K4me2 peptide (LSD2): did not detect NPAC cofactor activity
Nucleosome binding (GST-pulldown) [1]: binds strongly with purified nucleosomes

Reference: patent US9745384B2, “Peptides useful for modulating histone demethylase function” (The Brigham and Women's Hospital, Inc., priority 2012, dated 2017)
